A short description of the series: soluble fraction after stress (log2 fold change); higher = more stays soluble; pooled small domains, quantitative proteomics. The conditions noted are these: stress: 50 degC. The essentials:
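Pooled custom libraries of small protein domains were measured in a high-throughput format, with quantitative proteomics as the read-out. Each library was stressed at 50°C. Aggregation propensity is given as the base-two logarithm of the fold change in how much of each protein stays soluble after the stress. Higher values mean a larger share of the protein remains in solution.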
Turning to “HMKNSIKLDNFVGMSYDEVISNKEYDFNFVSAFEKTSDYEAGTIIGQTPAAEERVMVGTTVTLTVAQP”, the “soluble fraction (log2)” value worked out at 0.0342. The figure for “HMKNTADRVYENLFHMLVSGDYAPGDRIPSEHELKERFNVSRNTIRAALNRMNALGIIETRQGDGTYLKG” is -0.243; for “HMKNTFGLTEREMEVLALIVDGLSNPEIAEKLFITRATAKAHVHSILQKLYVDDRTQAAVTAMREGL” it is -1.23.

“HMKNTIPVPHIIGLSEQEARETLERAGLQLNVIKTEPNTKYESGQVTDTNPNEGIKVPKGTIVNVVLADS”: the “soluble fraction (log2)” value was -0.00961. For the sequence “HMKNTLDAYIRYLSNFLSRNNYPEAEDLSFINARADQAYEVFLEARRGGVDVSTAEELAMIALMQGY”, the “soluble fraction (log2)” value is -1.13. In the case of “HMKNVEEMILGKLKRKVSENLENASFEEIILVDAEKSVYKGIIKANYIEYYFRVNLSTGEVLSWKLK”, the “soluble fraction (log2)” value is -0.373. Take “HMKPAFTPYVVKVTADVLNVRSGPGTNYGITTKVKKGEAYTIVEEKNGWGKLKSGAGWISLEYTVK”: the “soluble fraction (log2)” value was -0.109. As for “HMKPALFSADELNRLYRYGLSLTGERDRAYDLLQTALEKYLRQSQAPANAMRYVRKIMHNQFIDDYR”, the figure is -1.13; as for “HMKPDWLSDGRLIPDEVMSHLRKIAVHAVEEMGYSPEDVIKILGLSRNTIYDWLKRFREHGYEGLDTKK”, -0.258.

Take “HMKPLAQQVNDYLAATRTSIATLANEIPGYSRPTISRYLAGKYDGDITTIEKLLAEWLAQRTG”: the “soluble fraction (log2)” value was -0.354.

In the case of “HMKPNEYVSGETFPYLGKNYRLKVLHGSENSVRLKGGYFITTISNRDSQLSTVKSLLEDWYQTHADK”, the “soluble fraction (log2)” value is 0.0439. The figure for “HMKPPTIELSYSEFIELVERGKVSKVIFSSDNYTLKGETVNGENFETVRPPFLEDNLSEILTIHKVPVSSE” is -0.208; for “HMKPSKTVYTTANLNLRNGASMSAAVYTSVSRGTALATTGRTTSGWTQITHRGRTLWASSKYLTTTTPP” it is -2.68; for “HMKPSNRSYPTALRMEVIGIIRERYADFGPTLAGEKLAELHGIHLGRETIRQWMMAAGLWKDRR” it is -0.825.

Take “HMKPTVKVPNVVNLSLRNAQIQLQNYGLEVGSISYESSRFKNAVLRQSISEGSVVEKGTTINLVISDGL”: the “soluble fraction (log2)” value is -0.203.

Turning to “HMKPVPPLNGTSLRDLALGYAGRYATTAARLKHYLQRKLRERGWGGEDEPDLDGLVARLVELGYVNDEVF”, the “soluble fraction (log2)” value is -0.102.

“HMKQAINFSDLNSLEEGLGIAIRQKWNEVSINDVPEDKIELVEDWINNNRGKYKGINISIGSTY”: the “soluble fraction (log2)” value is 0.167.

For “HMKQAVESAEAIFEEIARIKKLSLVKSEAEEIARKTGLQKFTIASQLLKNQHAYEMDESEIASLWDKKI”, the “soluble fraction (log2)” value came to 0.0237.

For the sequence “HMKQDFVYNGFVEAKGDDLMVQINYKGETYYVTEGESFGGFTVKSANKDKVVLSGQGGAETVLEFR”, the “soluble fraction (log2)” value is -0.106. Take “HMKQENRLKILRKEKGLTQTKLANEIGVSKRTIIAWENDERQIKPDKAQQLADYFGVKEGYLLGYTNN”: the “soluble fraction (log2)” value was found to be 0.132. As for “HMKQESSEDLLNEVIDKVIDSNPDEKNRLLDGELKLVSFFMGQVMKETKGKANPGVINGLIKKKFNI”, the figure is -0.675; as for “HMKQISNTDELEAMIQKIIEDNSQQVEKFRSGNEKLFGWFVGQVMKNTQGAANPKVVNEILKKSLK”, 0.177. “HMKQISNTDELESMAKNIIQENPDQVSKFKNGNEKLFGWFVGQMMKSTGGTANPKVVNEILKNLLN”: the “soluble fraction (log2)” value is 0.152. Consider “HMKQLIGYSVIDIKMGKLGEISFVNSKTAQALIHVSKDGKGFYFPWHKQFVKNIDAEKGIMEVEIPKEFLD”, for which the “soluble fraction (log2)” value was -0.237. “HMKQLNKRQNDILSFAEKQGYVSVENLAKLFSVTQQTIRRDINYLSDNELLVRTHGGAYYSS”: the “soluble fraction (log2)” value is -0.902. With “HMKQNRNLPVQIINNGKIIESVMTEFNLDIDWVYSEAKRLGYKNIKDIFYAGINRDGQFFIVPLF”, the “soluble fraction (log2)” value is -0.448. On to “HMKQNVEAVIKERAIEKARAQVKAVSTHMALEAQSLSKEQLEFEIERIAAQIIDKMPSDFWND”, for which the “soluble fraction (log2)” value is -0.386. In the case of “HMKQPNFTVIETKILELLFQKDLSSREMQEILKISKDNLIFALQNLLEQEKIVLQTSNTYTVN”, the “soluble fraction (log2)” value was -1.15.

On to “HMKQPVPDEIYFKRLANATEALGRYPRASERKKFGLNMSKRRYPTLTDFINKAIELGYVEDFR”, for which the “soluble fraction (log2)” value is -0.373.

Consider “HMKQQAYEQGKAAYQSGDWLRAVTQLGQVKEAGEKNGEVDHLLGNAYMKLGQFESAAYAYNSALEDVA”, for which the “soluble fraction (log2)” value came out at 0.269.

Regarding “HMKQTMIVVMEKDAPQSQIDDMVKRIEGLGLKAHTIVGTQRTVVAAIGEKREDTRESLAGSPGVAEVVPIL”, the “soluble fraction (log2)” value worked out at 0.181. On to “HMKQYVEPASETEKMVVELWEKVLLTEKIGMHDDFFELGGHSLKAMRLISLYHQEFNVRLSLKSLFEKLK”, for which the “soluble fraction (log2)” value was -0.121. “HMKRAVGLDEYRDSIVLKKPEGYTEESYAAYKNAYDALMALDSKETTAEMFANAKSAFEAAQAGLVQKP”: the “soluble fraction (log2)” value was 0.101. For the sequence “HMKRIFEKKVVTESLNGLRLDKAAATLFADFSRNELGQWIKDEALLVNGKAKKVKEKVSEGDVLALDVELI”, the “soluble fraction (log2)” value was 0.0881. On to “HMKRISDEDLLVMRRIDEVHTYHPTWGYRTITRILRRDDHLLINPKKVRRIMRDMGIYTIYPK”, for which the “soluble fraction (log2)” value is -0.039. As to “HMKRITAVISQKKGRDYYYIIVSYYLSNGKRVQRWIKTEFPINGNNKRKLEQKRIEVLQEWQDKLV”, the “soluble fraction (log2)” value is -1.3.

For “HMKRLQEQAYDYLKELILSGKMIENEIYSETKLASEIGISRTPIRDALQRLSQDGFIDIIPSKGFRIH”, the “soluble fraction (log2)” value is -0.134. As to “HMKRMSKKQLSAVIEKYFSSQPGVTLTLKDIFRNLHLDTHPLKMIALDILEEMSWDDVIMKVSDTSYALNT”, the “soluble fraction (log2)” value amounted to 0.281.

For the sequence “HMKRNLESVLDHIEGIGPKRRKALYKHFGNLDAMRVAELEELESVEGMNKKAALAVYEFFRRNS”, the “soluble fraction (log2)” value was 0.254. Consider “HMKRNTKAEVLEILLNSGETPVSGERLAENLGISRNAVWKAVTALKEDGYNISAKRNSGYILNKS”, for which the “soluble fraction (log2)” value was -0.0063.

On to “HMKRREENLRRLALSTAERVKRKGKKEILNPMSPQERRIIHLTLQNNKEVVTHSEGEDPYRRVIISPRN”, for which the “soluble fraction (log2)” value turned out to be 0.00802.

For “HMKRRSLQVGDIVQVRSLNVKGEVVSIGKNEVVVAVGRLQMRAGFDDLDFKERPKEEREVESV”, the “soluble fraction (log2)” value was -0.143.

On to “HMKRSFGSVRQLRSGNYQARYTGPDTVRHTSPVTYTSKMDAEAWLVDERRKISSGTWTPPAR”, for which the “soluble fraction (log2)” value is 0.0133. For “HMKRSVIVTAERAEVRQKADEGSALVFEAEKNVSLEYLEAAPGGWVKVRHLDGQSGFVRGNQI”, the “soluble fraction (log2)” value is -0.37.

Turning to “HMKRTKLEEATEWLRDRLSDGVKYNGEELLREGESADMARRTLRRAAQELGVIIERERGARGRWFWSLP”, the “soluble fraction (log2)” value is -0.515. As to “HMKRTLLLEGRTIPYELTQKPVKNINIRVHADGSVRVSAGPWVSPEAVDAVLRQRSAFLLRALDQFAAQAP”, the “soluble fraction (log2)” value is -0.996. Regarding “HMKRVPFAFAGDMLRWAAWLYHVEKRTQNEIAEELEVSRQTVANYLSEAMSQGLVQVQLRSDIIE”, the “soluble fraction (log2)” value is -1.52. As for “HMKSAIGEEKAENFAFADLGMDPLSAEGVRTEFGFEQGQFVYKVYFTADGTEYEYWIKASDGSVVKKGMDL”, the “soluble fraction (log2)” value is -0.891. For the sequence “HMKSAIKQNILLYLSNKGVTSYEFYKISGVTRGILQQSNGISEDNIAKFLAYAPDVNIEWLLTGKGDMLKH”, the “soluble fraction (log2)” value is -1.32.

For “HMKSATGKIPDFISDLPVDEFVRELIVTNAFQPLNKFKEVQNHIGSALKIYVDELTEKRANGTVHILYSHK”, the “soluble fraction (log2)” value was 0.077. Regarding “HMKSAYADVAIAKVQDYVNVRAENNEDSEVLGKLYNNSAATVLETTDDGWYKISSGSVTGYVKSEYVVVG”, the “soluble fraction (log2)” value turned out to be 0.0784. Take “HMKSEMYIDLSNALLKMSERDKELLTYRYTMEMSSKEISQITGIKESNVNSYIRRAREKLLKIFNAMNK”: the “soluble fraction (log2)” value is -3.04. Regarding “HMKSFDERQAALNELAKVIEGTGRKAEQDAEFRREQNQLMIDKIDEQLKGDLTDSQREELKKERAALARK”, the “soluble fraction (log2)” value is 0.153. As for “HMKSGLLNLSTRKQEKIKQALLSEFSNVSLLEAKVANIVTLAEISRGSFYTYFEDIYDAYQWLASI”, the figure is -0.26; as for “HMKSIFIRADELAAELDVSKALAYKMINQWNEELKAKGYTTVGGRVSRQYYYEKIYGAENVFDF”, -2.37; as for “HMKSILDDVVGLGPVRKKALLSAAGGFRKLRDMDVDEVIGLGAVPEEVAREVVTVLAQYNGERDRVEGL”, -0.0545.

In the case of “HMKSILSEIPGIGPKKRKSLMMQFGSVKNISEASLKDLSSTKGINSNLSKEIFNFFSVEKNN”, the “soluble fraction (log2)” value is -0.0118. For the sequence “HMKSKNILLGEYKGKEVHVGEGKYGPFILYDKKFKSIGAYLTENSLMLKDLTIEDYSKIMKFTENSNSKS”, the “soluble fraction (log2)” value is -0.651. As for “HMKSKNRLTKSYLDSIPGVGRKRKSILLRYFGSIDQIKRASSEDIANVPGIGKITSDLVYNYFNQ”, the figure is -0.495; as for “HMKSLAQELVDALGDRIRDGRLKVGDKLPSEAAIEAQYGVSRTVVREAISRLQAAGLVVTRHGIGTFIVGI”, -0.804.

In the case of “HMKSLLDQINGIGAIRKRALLNHFGSARAVESASLDEIKSVEGVEAKVAKKIYNFFHEYKNMLR”, the “soluble fraction (log2)” value is -1.12. The figure for “HMKSLLSRREQEVLELVSRGFSYSEIAELKNLSVHTIQTHIKSLYGKLEVHSKMEAVLEATRMGLLPQ” is -1.8; for “HMKSSLAKNLETLMQERQISQTRLSKISGVSQSYIFKILNDQIKKPSLDTLEKLATALDSTVAQLNH” it is -0.00953; for “HMKSSTEIIYSDFLREVSNGQISEVTIQGDFVRGLFLSGSSFQTYAPKDSNLINILRDKKVRIKVHPP” it is -0.134. With “HMKSTELSIIEALRVLGLKHGASQDSIKKSYRRLVKQHHPDLGGSADSFRKVNEAYQLLIMN”, the “soluble fraction (log2)” value is -0.425. For “HMKSVILQLHPETLRWIREEAQADMADASVIQLLNDWELGTKKPTLSQVQKLSHETHIPFGYFFLKEKPA”, the “soluble fraction (log2)” value is -0.45. For “HMKSVQIPQSITVKEFSQAIEVSVADVIKKLMSMGVMVSQNKEINVDTAILVGEEFGVTVNVA”, the “soluble fraction (log2)” value worked out at 0.0996. Turning to “HMKSVTVIFKESGNVVSSKKLSVVATAQYVDKSRITAPAGYRIATTDSKLKISENNTVTVEVK”, the “soluble fraction (log2)” value was found to be 0.212. The figure for “HMKSYTYNPNYLSDYNAYRLGIPLEALERLQLHRSTGRYVNSLSDFQSVTGISDSLKHSLSSSLRFPN” is -0.876.

These data come from the domain aggregation screens of Martell et al. (2025).
